Common to all, as to type: biochemical
Experiment [1] concerns the target T1, PKC-zeta (Homo sapiens, UniProt Q05513).
T1 construct: purchased Calbiochem
T1 sequence (Q05513 1-592): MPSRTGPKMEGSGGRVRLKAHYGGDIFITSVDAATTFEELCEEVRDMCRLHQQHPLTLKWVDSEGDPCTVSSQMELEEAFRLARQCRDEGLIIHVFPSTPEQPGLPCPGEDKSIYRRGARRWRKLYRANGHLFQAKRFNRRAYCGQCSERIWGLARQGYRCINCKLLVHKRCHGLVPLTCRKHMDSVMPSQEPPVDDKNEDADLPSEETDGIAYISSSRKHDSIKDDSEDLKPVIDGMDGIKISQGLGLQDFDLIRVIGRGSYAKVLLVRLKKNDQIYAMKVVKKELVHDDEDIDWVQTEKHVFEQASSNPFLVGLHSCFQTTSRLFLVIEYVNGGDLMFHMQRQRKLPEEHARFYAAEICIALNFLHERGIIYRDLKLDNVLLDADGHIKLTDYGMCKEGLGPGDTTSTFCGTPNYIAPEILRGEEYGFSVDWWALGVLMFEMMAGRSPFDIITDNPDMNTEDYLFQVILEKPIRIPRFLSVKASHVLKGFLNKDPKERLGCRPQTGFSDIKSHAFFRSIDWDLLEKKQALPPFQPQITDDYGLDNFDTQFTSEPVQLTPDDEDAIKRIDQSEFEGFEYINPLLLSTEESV
In words: In vitro kinase assay: peptide phosphorylation by PKC-zeta. The following applies: normalized to best substrate.

Experiment [2] addresses T2, PKA (Homo sapiens, UniProt P17612).
T2 construct: purchased Calbiochem
In words: In vitro kinase assay: peptide phosphorylation by PKA. The following applies: normalized to best substrate. How it is done: (§1) Catalytically active preparations of the kinases of interest were either purchased or prepared. Purchased and tested active kinase preparations including the following: PKC-alpha, PKC-delta, PKC-epsilon, PKC-zeta, PKC-mu, PKA, PKG from Calbiochem, ROK alpha/ROCK-II, active from Upstate Biotechnology, and AKT1 from Panvera.
(§2) The conditions of the kinase assay and the amount of active kinase used varied with the kinase and with the accuracy needed. For a typical experiment, 5-20 ng of kinase was used per well and each peptide pool was assayed in duplicate wells. Note that the absolute amount of kinase used was not usually a critical parameter, because the desired information related to specificity of the kinase not its absolute activity, and robustness of the assay depends on comparisons of the same amount of kinase on different peptides. The combination of kinase concentration and assay duration was modified to assure that the stoichiometry of peptide phosphorylation never exceeded 5%. The choice of kinase buffer depended on the kinase being analyzed. For studies of PKC, 100 mM HEPES, 0.05% Triton-X100, 1 mM CaCl2, 20 mM MgCl2, 0.2 mg/ml phosphatidyl serine (Avanti Polar Lipids), PMA 100 ng/ml was typically used. The lipid stock was prepared by transferring 3 mg phosphatidyl serine into iced mixture of 450 μl water plus 50 μl of 10% Triton-X100, sonicating 10 times on ice for 1 sec each.
(§3) The kinase reaction mixture was assembled by sequential addition to a tube held on ice of: 5 μl peptide (100 μM for final concentration of 10 μM), 15 μl of kinase (typically 5 ng/well, in appropriate kinase buffer), 30 μl of ATP (1 uCi/well of ^32P-gamma ATP in a stock of 167 μM cold ATP in the kinase buffer; for final concentration for 100 μM ATP). The mixture was rapidly warmed to desired reaction temperature (30° C. for PKC) and incubated for the desired duration (usually 10 minutes). The kinase assay was terminated by transfer to 4° C. water batch, and rapid addition of an equal volume (50 μl) of stop solution [0.1M ATP+0.1M EDTA in water, pH 8].
(§4) The peptides were then captured from the reaction mixture by transfer to a Reacti-Bind Streptavidin High Binding Capacity Coated Plates (HBC) (Pierce Biotechnology) as follows. The HBC plates were pre-rinsed three times with PBS/Tween PBS/Tween20 0.05% (PBS/Tween). Part of all of the reaction mixture was then transferred wells of a HBC plate pre-filled with 90 μl of phosphate-buffered saline (PBS); typically each aliquots of each phosphorylation reaction were transferred to duplicate HBC plates to assure accuracy by additional replication
(§5) For kinase assays done at the standard peptide concentration of 10 μM, the peptide concentration in the reaction mixture becomes 5 μM after addition of the stop solution; consequently 10 μl of the reaction (50 pMoles of peptide) was transferred to the HBC plate. More generally, the amount of reaction mixture transferred was estimated to be about 50 pMoles of peptide. […] The HBC plates were incubated for 0.5 to 1.5 hr at room temperature for complete binding of biotinylated peptides to plate-bound streptavidin. The HBC plates were then washed extensively with PBS/Tween. Five washes were done routinely and additional wash steps were added if the wash solution removed from the plate had measurable radioactivity as detected using a Geiger counter. This step is essential to obtaining a good the signal to noise ratio because the fraction of radioactivity incorporated in the peptides was a tiny fraction of the total in the reaction mixture. The wells were air-dried. A volume of 40-50 μl of microScint-20 (Packard Instruments) was added to each well. The plates were covered with stick-on film sheet. Radioactive emissions were measured in a TopCount NXT Microplate Scintillation and Luminescence Counter (Packard Instruments). Typically samples were counted for 5 minutes (or more) to improve the signal to noise ratio when counts were low. […]

The target in experiment [3] is T3, AKT1 (Homo sapiens, UniProt P31749).
T3 construct: purchased Panvera
Nature of the experiment: In vitro kinase assay: peptide phosphorylation by AKT1. To be noted: normalized to best substrate. On the procedure: as §1, §2, §3, §4, §5

The test system of experiment [4] is PKC. Nature of the experiment: In vitro phosphorylation by PKC (average of isoforms alpha, epsilon, delta, theta). To be noted: average of PKC-alpha, -epsilon, -theta, normalized to best substrate.

T3 sequence (P31749 whole entry, species assumed): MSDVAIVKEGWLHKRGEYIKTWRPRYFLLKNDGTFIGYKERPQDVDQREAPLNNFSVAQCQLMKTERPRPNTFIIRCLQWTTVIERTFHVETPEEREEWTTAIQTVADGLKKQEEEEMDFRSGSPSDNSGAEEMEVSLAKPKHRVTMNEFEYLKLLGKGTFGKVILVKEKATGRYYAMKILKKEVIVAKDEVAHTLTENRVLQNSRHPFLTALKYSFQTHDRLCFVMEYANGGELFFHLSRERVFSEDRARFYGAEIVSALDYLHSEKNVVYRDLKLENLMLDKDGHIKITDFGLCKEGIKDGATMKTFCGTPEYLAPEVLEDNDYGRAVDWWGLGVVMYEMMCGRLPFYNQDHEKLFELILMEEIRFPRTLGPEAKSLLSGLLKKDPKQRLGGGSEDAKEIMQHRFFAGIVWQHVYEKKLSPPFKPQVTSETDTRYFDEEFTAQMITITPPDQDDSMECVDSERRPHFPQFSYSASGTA

On to 101 (GAPPRRSSIRNAH) [compound 101], for which the PKC-zeta phosphorylation in experiment [1] is 3%. Moreover, in experiment [2], the PKA phosphorylation was 100%. Besides, the AKT1 phosphorylation in experiment [3] was found to be 12%. Further, the PKC average in experiment [4] was found to be 23%.
102 (AGSFKRNSIKKIV) [compound 102]: the PKC-zeta phosphorylation in experiment [1] is 2%. Further, the PKA phosphorylation in experiment [2] was found to be 5%. Also, the AKT1 phosphorylation in experiment [3] is reported as 6%. Moreover, in experiment [4], the PKC average is 23%.
Take 103 (LLKKRDSFRTPRDSKLE) [compound 103]: the PKC-zeta phosphorylation in experiment [1] is given as 8%. In experiment [2], the PKA phosphorylation was determined as 3%. In experiment [3], the AKT1 phosphorylation amounted to 7%. For the same substance, the PKC average in experiment [4] is 22%.
The matching figures for 104 (EKIKRSSLKKVDSLKK) [compound 104]: 3%, 1%, 2% and 22%.
The matching figures for 105 (ALRRPSLRREADD) [compound 105]: 4%, 84%, 12% and 21%.
Consider 106 (EILSRRPSYRKILND) [compound 106], for which the PKC-zeta phosphorylation in experiment [1] is 15%. Further, the PKA phosphorylation in experiment [2] was determined as 30%. For the same substance, in experiment [3], the AKT1 phosphorylation worked out at 12%. Moreover, the PKC average in experiment [4] is 21%.
On to 107 (QKRHARVTVKYDRRE) [compound 107], for which, in experiment [1], the PKC-zeta phosphorylation worked out at 1%. Also, the PKA phosphorylation in experiment [2] was 2%. In experiment [3], the AKT1 phosphorylation was 3%. Besides, the PKC average in experiment [4] was determined as 19%.
As for 108 (KATTKKRTLRKNDRK) [compound 108], the PKC-zeta phosphorylation in experiment [1] is reported as 1%. Further, the PKA phosphorylation in experiment [2] worked out at 0%. Further, the AKT1 phosphorylation in experiment [3] is 1%. Besides, the PKC average in experiment [4] was 16%.
109 (KEVVRTDSLKGRRGR) [compound 109]: the PKC-zeta phosphorylation in experiment [1] came to 2%. Also, the PKA phosphorylation in experiment [2] came to 1%. The AKT1 phosphorylation in experiment [3] turned out to be 2%. In addition, the PKC average in experiment [4] is given as 16%.
On to 110 (EGGDRRASGRRK) [compound 110], for which the PKC-zeta phosphorylation in experiment [1] is reported as 3%. In experiment [2], the PKA phosphorylation was 1%. The AKT1 phosphorylation in experiment [3] was found to be 1%. In addition, the PKC average in experiment [4] came out at 15%.
Take “111 (KKKRFSFKKSFKLSGFSFKK) [compound 111]”: in experiment [1], the PKC-zeta phosphorylation was 9%. Moreover, the PKA phosphorylation in experiment [2] worked out at 3%. Besides, the AKT1 phosphorylation in experiment [3] came out at 3%. The PKC average in experiment [4] was 14%.
Consider 112 (KRPGKKGSNKRPGKR) [compound 112], for which, in experiment [1], the PKC-zeta phosphorylation was 1%. Besides, the PKA phosphorylation in experiment [2] came to 0%. Moreover, in experiment [3], the AKT1 phosphorylation was determined as 3%. In addition, the PKC average in experiment [4] stood at 12%.
The matching figures for 113 (GENVLKKSMKSRVKG) [compound 113]: 1%, 0%, 9% and 10%.

Values taken from patent US20050064507A1, “Determining kinase specificity” (priority 2003, published 2005).
